Earlier results, collected in paper doi:10.1101/2022.07.01.498456.

How the values were obtained:
[1] = target: Asp52 (UniProt position 70, TDGSTDYGILQ); assay: other; conditions: native HEWL, ligand-free (inferred; not explicitly stated)
[2] = target: Glu35 (UniProt position 53, CAAKFESNFNT); assay: other; conditions: native HEWL, ligand-free (inferred; not explicitly stated)

Substance: Hen egg-white lysozyme (lysozyme C) (Gallus gallus)
- pKa [1]: 3.6
- pKa [2]: 6.2
